Numbering of substitutions follows the chain as printed. Names may count otherwise.
Biological target: the molecule itself
Assay: SEC

B1: CODANIN-1 F581E/E652A (LOBE2 dimer interface mutant) (natural protein)
chain: MAAVLESLLREEVSVAAVVRWIARSTQGSEDNAGEAAALSSLRALRKEFVPFLLNFLREQSSRVLPQGPPTPAKTPGASAALPGRPGGPPRGSRGARSQLFPPTEAQSTAAEAPLARRGGRRRGPGPARERGGRGLEEGVSGESLPGAGGRRLRGSGSPSRPSLTLSDPPNLSNLEEFPPVGSVPPGPTGTKPSRRINPTPVSEERSLSKPKTCFTSPPISCVPSSQPSALDTSPWGLGLPPGCRSLQEEREMLRKERSKQLQQSPTPTCPTPELGSPLPSRTGSLTDEPADPARVSSRQRLELVALVYSSCIAENLVPNLFLELFFVFQLLTARRMVTAKDSDPELSPAVLDSLESPLFQSIHDCVFFAVQVLECHFQVLSNLDKGTLKLLAENERLLCFSPALQGRLRAAYEGSVAKVSLVMPPSTQAVSFQPETDNRANFSSDRAFHTFKKQRDVFYEVLREWEDHHEEPGWDFEKGLGSRIRAMMGQLSAACSHSHFVRLFQKQLLQMCQSPGGAGGTVLGEAPDVLSMLGADKLGRLWRLQERLMAPQSSGGPCPPPTFPGCQGFFRDFILSASSEQFNQHLMDSLSLKIQELNGLALPQHEPNDEDGESDVDWQGERKQFAVVLLSLRLLAKFLGFVAFLPYRGPAPPPTGELQDSILALRSQVPPVLDVRTLLQRGLQARRAVLTVPWLVEFLSFADHVVPLLEYYRDIFTLLLRLHRSLVLSQESEGKMCFLNKLLLLAVLGWLFQIPTVPEDLFFLEEGPSYAFEVDTVAPEHGLDNAPVVDQQLLYTCCPYIGELRKLLASWVSGSSGRSGGFMRKITPTTTTSLGAQPSQTSQGLQAQLAQAFFHNQPPSLRRTVEFVAERIGSNCVKHIKATLVADLVRQAESLLQEQLVTQGEEGGDPAQLLEILCSQLCPHGAQALALGREFCQRKSPGAVRALLPEETPAAVLSSAENIAVGLATEKACAWLSANITALIRREVKAAVSRTLRAQGPEPAARGERRGCSRACEHHAPLPSHLISEIKDVLSLAVGPRDPDEGVSPEHLEQLLGQLGQTLRCRQFLCPPAEQHLAKCSVELASLLVADQIPILGPPAQYRLERGQARRLLHMLLSLWKEDFQGPVPLQLLLSPRNVGLLADTRPREWDLLLFLLRELVEKGLMGRMEIEACLGSLHQAQWPGDFAEELATLSNLFLAEPHLPEPQLRACELVQPNRGTVLAQS
stoichiometry N: 2

B2: CODANIN-1 F868I/E871R (C-terminal coiled-coil mutant) (natural protein)
chain: B1 chain with E581F, A652E, F868I, E871R
binding result: binds

B3: CODANIN-1 P672L (CDA-I disease mutation) (natural protein)
chain: B1 chain with E581F, A652E, P672L
stoichiometry N: 2
